Results on 2 molecules are retold here after paper doi:10.1101/2023.09.25.559264.

Positions count from the first letter of the chain named. Like-named read-outs stand apart in the source and are kept apart here.

Holding throughout (test): MST
Data set [1] concerns the target T1, WtIHF (wild-type integration host factor) (E. coli, UniProt P0A6X7;P0A6Y1 1-99;1-94).
Data set [2] concerns the target T1, WtIHF (wild-type integration host …). The source holds these as a separate data set.
For data set [3] the target is unchanged. This is another data set of the same source.

T1 sequence (P0A6X7 whole entry, chain 1 of 2): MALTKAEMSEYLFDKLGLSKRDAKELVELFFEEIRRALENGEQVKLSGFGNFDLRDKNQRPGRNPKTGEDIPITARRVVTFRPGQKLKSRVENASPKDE
T1 sequence (P0A6Y1 whole entry, chain 2 of 2): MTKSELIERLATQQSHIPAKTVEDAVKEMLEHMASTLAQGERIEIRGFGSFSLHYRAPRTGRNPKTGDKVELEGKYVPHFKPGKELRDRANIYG

B1: H'-HJ (structured_DNA)
DNA 1: CCAGACAGCAGTTATCAATTTGTTGGGACGGAGG
DNA 2: CCTTCAACCACCGCTCATGATTACTGCTGTCTGG
DNA 3: CCTCCGTCCCAACAAATGGCTGCTACCGGAAGGG
DNA 4: AAAAACCCTTCCGGTAGCAGCCTGAGCGGTGGTTGAAGG
As to B1, the Kd (usually a measure of binding affinity in units of concentration) in data set [1] amounted to 13.6 ± 2.21 nM; in data set [2] it was 12 ± 0.89 nM; in data set [3] it was 2.8 ± 0.5 nM.

B2: H1-HJ (structured_DNA)
DNA 1: CCAGACAGCAGTAATCAACTACTTAGGACGGAGG
DNA 2: B1 DNA 2
DNA 3: B1 DNA 3 with C10T, C13G, A14T, A16G
DNA 4: B1 DNA 4
With B2, the Kd in data set [1] stood at 7.09 ± 0.93 nM; in data set [2] it was 7.75 ± 1.1 nM; in data set [3], 11 ± 1.6 nM.
